According to the supplement of paper PMC9112550, “Optimization of the antimicrobial peptide Bac7 by deep mutational scanning” (BMC Biology, 2022):

Test system: Escherichia coli TOP10
Assay: shrunken log2 fold change of peptide-encoding DNA abundance (4.5 h post-induction vs induction); higher = less antimicrobial activity (less host growth inhibition)
Conditions: time post-induction: 4.5 h; library: site-saturation at positions 5, 18, 19, 20
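Note: peptides expressed intracellularly from a pBAD plasmid library in pooled LB shake-flask culture, induced with 0.3% L-arabinose, DNA abundance read by NGS, three biological replicates, DESeq2 with apeglm shrinkage.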

First: RRIRPRPPRLPRPRPRPKDGPRP
Second: RRIRPRPPRLPRPRPRPKDNPRP
The “shrunken log2 fold change” value of the first is higher: 0.0462 for the first, -0.248 for the second.

Compared with RRIRPRPPRLPRPRPRPKFTPRP, RRIRPRPPRLPRPRPRPKGCPRP is higher in “shrunken log2 fold change” value: -0.141 for the first, 0.394 for the second.

RRIRPRPPRLPRPRPRPKHMPRP and RRIRPRPPRLPRPRPRPKIEPRP are within 0.2 log units of each other in “shrunken log2 fold change” value: -0.0288 for the first, 0.0313 for the second.

RRIRPRPPRLPRPRPRPKIPPRP and RRIRPRPPRLPRPRPRPKKCPRP are within 0.2 log units of each other in “shrunken log2 fold change” value: -0.408 for the first, -0.352 for the second.

First: RRIRPRPPRLPRPRPRPKKNPRP
Second: RRIRPRPPRLPRPRPRPKLGPRP
The “shrunken log2 fold change” value of the first is lower: 0.0249 for the first, 0.551 for the second.

RRIRPRPPRLPRPRPRPKMIPRP and RRIRPRPPRLPRPRPRPKNEPRP are within 0.2 log units of each other in “shrunken log2 fold change” value: -0.0706 for the first, -0.119 for the second.

RRIRPRPPRLPRPRPRPKNWPRP and RRIRPRPPRLPRPRPRPKQIPRP are within 0.2 log units of each other in “shrunken log2 fold change” value: 0.261 for the first, 0.0957 for the second.

RRIRPRPPRLPRPRPRPKSFPRP and RRIRPRPPRLPRPRPRPKTHPRP are within 0.2 log units of each other in “shrunken log2 fold change” value: -0.0474 for the first, -0.0419 for the second.

Compared with RRIRPRPPRLPRPRPRPKTKPRP, RRIRPRPPRLPRPRPRPKVWPRP is higher in “shrunken log2 fold change” value: 0.00358 for the first, 0.318 for the second.

Compared with RRIRPRPPRLPRPRPRPKYHPRP, RRIRPRPPRLPRPRPRPLADPRP is higher in “shrunken log2 fold change” value: -0.317 for the first, 0.188 for the second.

First: RRIRPRPPRLPRPRPRPLASPRP
Second: RRIRPRPPRLPRPRPRPLCVPRP
The “shrunken log2 fold change” value of the first is higher: 0.104 for the first, -0.214 for the second.

Going from RRIRPRPPRLPRPRPRPLCYPRP to RRIRPRPPRLPRPRPRPLFRPRP, the “shrunken log2 fold change” value rises from -0.488 to 0.159.

RRIRPRPPRLPRPRPRPLFSPRP and RRIRPRPPRLPRPRPRPLGIPRP are within 0.2 log units of each other in “shrunken log2 fold change” value: -0.103 for the first, -0.0635 for the second.

RRIRPRPPRLPRPRPRPLLLPRP and RRIRPRPPRLPRPRPRPLMIPRP are within 0.2 log units of each other in “shrunken log2 fold change” value: -0.208 for the first, -0.152 for the second.

Compared with RRIRPRPPRLPRPRPRPLMKPRP, RRIRPRPPRLPRPRPRPLNLPRP is higher in “shrunken log2 fold change” value: -0.181 for the first, 0.177 for the second.

RRIRPRPPRLPRPRPRPLQFPRP and RRIRPRPPRLPRPRPRPLTGPRP are within 0.2 log units of each other in “shrunken log2 fold change” value: -0.178 for the first, 0.019 for the second.

Compared with RRIRPRPPRLPRPRPRPLVDPRP, RRIRPRPPRLPRPRPRPLVQPRP is lower in “shrunken log2 fold change” value: 0.111 for the first, -0.0898 for the second.

RRIRPRPPRLPRPRPRPMCHPRP and RRIRPRPPRLPRPRPRPMCSPRP are within 0.2 log units of each other in “shrunken log2 fold change” value: -0.22 for the first, -0.152 for the second.

RRIRPRPPRLPRPRPRPMCTPRP and RRIRPRPPRLPRPRPRPMDGPRP are within 0.2 log units of each other in “shrunken log2 fold change” value: 0.108 for the first, 0.214 for the second.

RRIRPRPPRLPRPRPRPMDHPRP and RRIRPRPPRLPRPRPRPMEIPRP are within 0.2 log units of each other in “shrunken log2 fold change” value: 0.0131 for the first, -0.00192 for the second.

RRIRPRPPRLPRPRPRPMFGPRP and RRIRPRPPRLPRPRPRPMFIPRP are within 0.2 log units of each other in “shrunken log2 fold change” value: -0.253 for the first, -0.439 for the second.

RRIRPRPPRLPRPRPRPMGGPRP and RRIRPRPPRLPRPRPRPMGTPRP are within 0.2 log units of each other in “shrunken log2 fold change” value: 0.113 for the first, 0.0218 for the second.

RRIRPRPPRLPRPRPRPMHGPRP and RRIRPRPPRLPRPRPRPMHLPRP are within 0.2 log units of each other in “shrunken log2 fold change” value: 0.0373 for the first, -0.034 for the second.

RRIRPRPPRLPRPRPRPMHTPRP and RRIRPRPPRLPRPRPRPMIMPRP are within 0.2 log units of each other in “shrunken log2 fold change” value: -0.0538 for the first, -0.0291 for the second.

First: RRIRPRPPRLPRPRPRPMIVPRP
Second: RRIRPRPPRLPRPRPRPMMCPRP
The “shrunken log2 fold change” value of the first is lower: -1.14 for the first, -0.147 for the second.

RRIRPRPPRLPRPRPRPMMWPRP and RRIRPRPPRLPRPRPRPMNWPRP are within 0.2 log units of each other in “shrunken log2 fold change” value: 0.0433 for the first, -0.0482 for the second.

Compared with RRIRPRPPRLPRPRPRPMPQPRP, RRIRPRPPRLPRPRPRPMPYPRP is lower in “shrunken log2 fold change” value: -0.0158 for the first, -0.41 for the second.

RRIRPRPPRLPRPRPRPMRFPRP and RRIRPRPPRLPRPRPRPMRHPRP are within 0.2 log units of each other in “shrunken log2 fold change” value: 0.0813 for the first, -0.0129 for the second.

RRIRPRPPRLPRPRPRPMSKPRP and RRIRPRPPRLPRPRPRPMSNPRP are within 0.2 log units of each other in “shrunken log2 fold change” value: -0.276 for the first, -0.127 for the second.

Compared with RRIRPRPPRLPRPRPRPMTDPRP, RRIRPRPPRLPRPRPRPMTMPRP is lower in “shrunken log2 fold change” value: 0.0653 for the first, -0.469 for the second.

Compared with RRIRPRPPRLPRPRPRPMTTPRP, RRIRPRPPRLPRPRPRPMTYPRP is lower in “shrunken log2 fold change” value: -0.104 for the first, -0.437 for the second.

RRIRPRPPRLPRPRPRPMVDPRP and RRIRPRPPRLPRPRPRPMVEPRP are within 0.2 log units of each other in “shrunken log2 fold change” value: -0.019 for the first, -0.112 for the second.

RRIRPRPPRLPRPRPRPMWQPRP and RRIRPRPPRLPRPRPRPMYWPRP are within 0.2 log units of each other in “shrunken log2 fold change” value: 0.0423 for the first, -0.0489 for the second.

RRIRPRPPRLPRPRPRPNCPPRP and RRIRPRPPRLPRPRPRPNDEPRP are within 0.2 log units of each other in “shrunken log2 fold change” value: -0.0126 for the first, 0.0306 for the second.

Compared with RRIRPRPPRLPRPRPRPNFYPRP, RRIRPRPPRLPRPRPRPNHAPRP is lower in “shrunken log2 fold change” value: 0.356 for the first, -0.162 for the second.

RRIRPRPPRLPRPRPRPNHRPRP and RRIRPRPPRLPRPRPRPNKAPRP are within 0.2 log units of each other in “shrunken log2 fold change” value: -0.11 for the first, 0.0279 for the second.

RRIRPRPPRLPRPRPRPNKMPRP and RRIRPRPPRLPRPRPRPNLIPRP are within 0.2 log units of each other in “shrunken log2 fold change” value: -0.17 for the first, -0.203 for the second.

RRIRPRPPRLPRPRPRPNLNPRP was tested, and the “shrunken log2 fold change” value was -0.369.
